Data on eight molecules can be found in article PMC12752793, “Development of potent Affitin-based bispecific NK cell engagers for the therapy of MSLN-expressing cancers” (Molecular Therapy Oncology, 2025).

The koff is the first-order rate constant of dissociation. One may read the EC50 as the concentration at which the effect is half-maximal. A higher EC50 goes with weaker potency.

Experiment [1] concerns the target T1, recombinant 302–359 fragment of human mesothelin (hMSLN) (human, UniProt Q13421 302-359, biotin on the AviTag).
T1 chain: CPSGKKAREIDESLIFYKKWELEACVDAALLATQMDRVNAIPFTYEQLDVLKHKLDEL
Nature of the experiment: SPR. (In general: Surface plasmon resonance follows binding to a sensor surface in real time, without labels.)

Experiment [2] concerns the target T1, recombinant 302–359 fragment of human …. Kind of experiment: SPR; bivalent model, kd2.
Experiment [3] shares this target. Kind of experiment: SPR; bivalent model, kd1.
Experiment [4] concerns the target recombinant 302–359 fragment of human mesothelin (hMSLN) (human) (UniProt Q13421). Kind of experiment: SPR; Biacore T200; hMSLN 302–359 amine-coupled at about 700 RU on CM5; analytes 12.5 to 200 nM in HBS-EP, single cycle kinetics, 30 μL/min; bivalent model; apparent.
Experiment [5] has as its target human mesothelin on the surface of Meso34-MSLN cells (human) (UniProt Q13421). Nature of the experiment: flow cytometry on cells; Meso34-MSLN and NK92CD16h cells incubated with increasing concentrations of BiKEs, 30 min at 4°C; streptavidin-PE; one binding site regression. For orientation: In flow cytometry, cells or beads pass a laser one at a time.
The target is the same in experiment [6].
Experiment [7] addresses T1, recombinant 302–359 fragment of human …. Kind of experiment: SPR; bivalent model, kd2.
Experiment [8] deals with human mesothelin on the surface of Meso34-MSLN cells (human) (UniProt Q13421). Nature of the experiment: flow cytometry on cells; Meso34 and Meso34-MSLN cells stained with a concentration range of N13 monomer (streptavidin-PE), N13 dimer (anti-6X His Tag-PE) or MORAb-009 (anti-human IgG Fc), 30 min at 4°C; EC50 by one binding site regression.
For experiment [9], the target named is T1, recombinant 302–359 fragment of human …. Kind of experiment: SPR; bivalent model, kd1.
Experiment [10] shares this target. Kind of experiment: SPR.
The target of experiment [11] is recombinant 302–359 fragment of human mesothelin (hMSLN) (human) (UniProt Q13421). Kind of experiment: SPR; Biacore T200; hMSLN 302–359 amine-coupled at about 700 RU on CM5; analytes 12.5 to 200 nM in HBS-EP, single cycle kinetics, 30 μL/min; Langmuir model.
Experiment [12] deals with T2, recombinant 302–359 fragment of human mesothelin (hMSLN) (Homo sapiens, UniProt Q13421, biotin on the AviTag).
T2 construct: Amine-coupled to a CM5 chip in SPR, captured on NeutrAvidin in ELISA; source: E. coli Origami B with pBirA, purified (Ni-NTA, Superdex 75); not shown: AviTag, C-terminal, kept
The experiment is described as above. Conditions: both partners purified.

In experiment [13] the target is T1, recombinant 302–359 fragment of human …. Kind of experiment: SPR.

human mesothelin on the surface of Meso34-MSLN cells (human), sequence (Q13421 other isoform, or with tags, fused parts or gaps): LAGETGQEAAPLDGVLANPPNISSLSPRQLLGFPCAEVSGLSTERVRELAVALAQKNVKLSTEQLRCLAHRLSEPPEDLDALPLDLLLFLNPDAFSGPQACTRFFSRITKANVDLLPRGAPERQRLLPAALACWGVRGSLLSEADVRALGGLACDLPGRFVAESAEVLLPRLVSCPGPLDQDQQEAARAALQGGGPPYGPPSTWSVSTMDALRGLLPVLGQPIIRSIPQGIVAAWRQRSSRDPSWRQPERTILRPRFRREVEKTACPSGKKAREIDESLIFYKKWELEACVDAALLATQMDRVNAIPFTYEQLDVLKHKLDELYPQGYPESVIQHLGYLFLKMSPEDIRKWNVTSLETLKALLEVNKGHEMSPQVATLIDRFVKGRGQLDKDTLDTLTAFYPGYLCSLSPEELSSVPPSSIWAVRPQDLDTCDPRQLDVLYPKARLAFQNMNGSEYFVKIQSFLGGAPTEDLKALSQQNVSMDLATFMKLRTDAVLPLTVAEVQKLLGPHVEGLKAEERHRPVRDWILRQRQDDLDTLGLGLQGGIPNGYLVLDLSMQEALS

B1: N13 Affitin (monomer) (designed binder)
chain: MRGSHHHHHHGSATKVKFKVFGEEKEVDISKIKHVDRMNWRGLLYIRFSYDDNGKLGHGWVSEKDAPKELLEKLKLN
modifications: biotin on the AviTag
For B1, the dissociation rate constant (koff) in experiment [1] was 0.0647 s⁻¹.

B2: C21(N13)2 bispecific NK cell engager (anti-CD16 VHH C21 fused to a homodimer of N13 Affitin) (designed binder)
chain: MEVQLVESGGELVQAGGSLRLSCAASGLTFSSYNMGWFRRAPGKEREFVASITWSGRDTFYADSVKGRFTISRDNAKNTVYLQMSSLKPEDTAVYYCAANPWPVAAPRSGTYWGQGTQVTVSSPSGQAGAAASESLFVSNHAYGSATKVKFKVFGEEKEVDISKIKHVDRMNWRGLLYIRFSYDDNGKLGHGWVSEKDAPKELLEKLKPSGQAGAAASESLFVSNHAYGSGATKVKFKVFGEEKEVDISKIKHVDRMNWRGLLYIRFSYDDNGKLGHGWVSEKDAPKELLEKLKLNRGSHHHHHHGSGLNDIFEAQKIEWHE
modifications: biotin on the AviTag
As for B2, the koff in [2] is 0.000762 s⁻¹. For the same molecule, in [3], the off-rate constant (koff) amounted to 0.136 s⁻¹. In addition, in [4], the Kd turned out to be 0.831 nM. For the same molecule, the EC50 in experiment [5] amounted to 7.45 nM. Moreover, in experiment [6], the ED50 of NK92CD16h-mediated 51Cr cytotoxicity on Meso34-MSLN cells, effector/target ratio 10:1 turned out to be 0.325 nM; the ED50 of NK92CD16h-mediated 51Cr cytotoxicity on Meso34-MSLN cells, effector/target ratio 20:1 amounted to 0.277 nM; the maximal NK92CD16h-mediated 51Cr cytotoxicity on Meso34-MSLN cells, effector/target ratio 10:1 turned out to be 22.6%; the maximal NK92CD16h-mediated 51Cr cytotoxicity on Meso34-MSLN cells, effector/target ratio 20:1 is 38.9%.

B3: N13 Affitin homodimer (two N13 Affitins linked by a 20-amino-acid HMA linker) (designed binder)
chain: MRGSHHHHHHGSATKVKFKVFGEEKEVDISKIKHVDRMNWRGLLYIRFSYDDNGKLGHGWVSEKDAPKELLEKLKPSGQAGAAASESLFVSNHAYGSGATKVKFKVFGEEKEVDISKIKHVDRMNWRGLLYIRFSYDDNGKLGHGWVSEKDAPKELLEKLKLGSGLNDIFEAQKIEWHE
With B3, the koff in [7] is 0.000767 s⁻¹. In experiment [8], this molecule came in with a 50% effective concentration (EC50) of 2.22 nM and a fold increase in affinity for cellular hMSLN against the N13 monomer of 1000 fold. Moreover, the koff in experiment [9] came out at 0.0573 s⁻¹. Also, in experiment [4], the Kd turned out to be 0.57 nM and the fold reduction of the dissociation rate constant (kd) against the N13 monomer amounted to 84 fold.

B4: N18 Affitin (monomer) (designed binder)
chain: MRGSHHHHHHGSATKVKFKLFGEEKEVDISKIKKVERRTFHMDKTIVFMYDDNGKSGYGWVSEKDAPKELLEKLKLN
modifications: biotin on the AviTag
Regarding B4, in experiment [1], the koff was 0.073 s⁻¹.

B5: N23 Affitin (monomer) (designed binder)
chain: MRGSHHHHHHGSATKVKFKLFGEEKEVDISKIKRVERRAIQAASYIAFAYDDNGKIGHGWVSEKDAPKELLEKLKLN
modifications: biotin on the AviTag
As for B5, in experiment [1], the koff amounted to 0.288 s⁻¹.

B6: C21(N13)1 bispecific NK cell engager (anti-CD16 VHH C21 fused to one N13 Affitin) (designed binder)
chain: MEVQLVESGGELVQAGGSLRLSCAASGLTFSSYNMGWFRRAPGKEREFVASITWSGRDTFYADSVKGRFTISRDNAKNTVYLQMSSLKPEDTAVYYCAANPWPVAAPRSGTYWGQGTQVTVSSPSGQAGAAASESLFVSNHAYGSATKVKFKVFGEEKEVDISKIKHVDRMNWRGLLYIRFSYDDNGKLGHGWVSEKDAPKELLEKLKKLNRGSHHHHHHGSGLNDIFEAQKIEWHE
modifications: biotin on the AviTag
B6: in experiment [10], the koff is 0.0385 s⁻¹. The same molecule displayed an affinity for Meso34-hMSLN cells in experiment [5] of more than 100 nM. Besides, the Kd in experiment [11] came to 67.1 nM. Moreover, in experiment [6], the ED50 of NK92CD16h-mediated 51Cr cytotoxicity on Meso34-MSLN cells, effector/target ratio 10:1 was found to be 5.62 nM; the ED50 of NK92CD16h-mediated 51Cr cytotoxicity on Meso34-MSLN cells, effector/target ratio 20:1 was 3.11 nM; the maximal NK92CD16h-mediated 51Cr cytotoxicity on Meso34-MSLN cells, effector/target ratio 10:1 came out at 19.2%; the maximal NK92CD16h-mediated 51Cr cytotoxicity on Meso34-MSLN cells, effector/target ratio 20:1 was 26.1%.

B7: VHH A1 (anti-hMSLN VHH) (VHH)
VHH: DVQLQESGGGLVHPGGSLRLSCAASGIDLSLYRMRWYRQAPGKERDLVALITDDGTSYYEDSVKGRFTITRDNPSNKVFLQMNSLKPEDTAVYYCNAETPLSPVNYWGQGTQVTVSS
Regarding B7, the Kd in experiment [12] worked out at 15.6 nM. In experiment [13], the koff worked out at 0.804 s⁻¹.

B8: N7 Affitin (monomer) (designed binder)
chain: MRGSHHHHHHGSATKVKFKYMGEEKEVDISKIKVVSRSVGPLGSFILFQYDDNGKMGRGFVSEKDAPKELLEKLKLN
modifications: biotin on the AviTag
B8: the koff in experiment [1] is 0.214 s⁻¹.
